Assay [1] addresses T1, mouse PTH1R overexpressed on CHO cells (mouse, UniProt P41593 27-591).
T1 sequence (looked up): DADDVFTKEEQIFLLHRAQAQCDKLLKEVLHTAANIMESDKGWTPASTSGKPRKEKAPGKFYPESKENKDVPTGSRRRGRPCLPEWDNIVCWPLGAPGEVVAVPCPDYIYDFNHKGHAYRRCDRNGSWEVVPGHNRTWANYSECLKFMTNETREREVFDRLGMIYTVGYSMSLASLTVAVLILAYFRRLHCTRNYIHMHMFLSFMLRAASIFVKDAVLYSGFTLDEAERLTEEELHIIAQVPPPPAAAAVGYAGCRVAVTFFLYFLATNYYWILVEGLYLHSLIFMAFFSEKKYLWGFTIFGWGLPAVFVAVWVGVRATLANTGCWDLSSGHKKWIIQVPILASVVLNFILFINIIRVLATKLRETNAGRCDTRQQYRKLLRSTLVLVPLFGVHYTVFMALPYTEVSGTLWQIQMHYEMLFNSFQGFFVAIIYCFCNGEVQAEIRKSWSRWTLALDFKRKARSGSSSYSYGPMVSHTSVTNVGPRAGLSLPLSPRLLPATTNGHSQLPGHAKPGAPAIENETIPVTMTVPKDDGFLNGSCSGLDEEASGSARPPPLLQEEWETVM
As to the kind of experiment: cell-based or functional assay.

Assay [2] concerns the target T2, rat PTH1R on UMR106 cells (rat, UniProt P25961 27-591).
T2 sequence (looked up): T1 sequence (looked up) with P58S, L497P, I518T, N520T, I523L, T528A
The assay can be described thus: cell-based or functional assay.

Assay [3] addresses T3, human PTH1R overexpressed on CHO cells (human, UniProt Q03431 27-593).
T3 sequence (looked up): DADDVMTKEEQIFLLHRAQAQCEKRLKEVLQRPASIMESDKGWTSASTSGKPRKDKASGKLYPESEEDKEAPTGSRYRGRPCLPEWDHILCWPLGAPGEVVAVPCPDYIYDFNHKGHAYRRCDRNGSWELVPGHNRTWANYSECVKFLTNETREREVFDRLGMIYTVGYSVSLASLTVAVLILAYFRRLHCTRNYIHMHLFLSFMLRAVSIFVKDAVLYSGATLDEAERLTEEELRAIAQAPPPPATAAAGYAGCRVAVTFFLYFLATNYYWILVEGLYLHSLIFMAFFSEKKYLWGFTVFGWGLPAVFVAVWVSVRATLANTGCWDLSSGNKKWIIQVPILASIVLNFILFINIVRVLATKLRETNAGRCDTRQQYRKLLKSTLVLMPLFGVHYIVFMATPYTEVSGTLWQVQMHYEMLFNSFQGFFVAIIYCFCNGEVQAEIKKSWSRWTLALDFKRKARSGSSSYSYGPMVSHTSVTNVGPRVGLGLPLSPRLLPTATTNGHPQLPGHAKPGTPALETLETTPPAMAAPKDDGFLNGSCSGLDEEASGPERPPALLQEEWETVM
The assay can be described thus: cell-based or functional assay.

Assay [4] has as its target T4, human PTH1R on Saos-2 cells (endogenous) (human, UniProt Q03431 27-593).
T4 sequence (looked up): T3 sequence (looked up)
The assay can be described thus: cell-based or functional assay.

In assay [5] the target is T4, human PTH1R on Saos-2 cells (endogenous). The assay can be described thus: cell-based or functional assay. This is another data set of the same source.
Assay [6] concerns the target T2, rat PTH1R on UMR106 cells. As to the kind of experiment: cell-based or functional assay. The source holds these as a separate data set.
The target in assay [7] is T4, human PTH1R on Saos-2 cells (endogenous). As to the kind of experiment: cell-based or functional assay. This is another data set of the same source.
Assay [8] addresses T3, human PTH1R overexpressed on CHO cells. The assay can be described thus: cell-based or functional assay. The source holds these as a separate data set.
The target of assay [9] is T1, mouse PTH1R overexpressed on CHO cells. As to the kind of experiment: cell-based or functional assay. This is another data set of the same source.
In assay [10] the target is T5, recombinant N-terminal extracellular domain of the human PTH1R receptor (human, UniProt Q03431 27-188, limits assumed).
T5 construct: domain: N-terminal extracellular domain; Bought reagent; also called N-ECD PTH1R; PTH1R N-terminal ECD
T5 sequence (looked up): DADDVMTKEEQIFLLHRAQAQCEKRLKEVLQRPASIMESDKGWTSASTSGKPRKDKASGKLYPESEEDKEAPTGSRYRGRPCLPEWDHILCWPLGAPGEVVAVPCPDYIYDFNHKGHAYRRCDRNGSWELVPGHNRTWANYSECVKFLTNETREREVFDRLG
The assay can be described thus: SPR, IgG captured, ECD injected. Summed up:
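Antibodies (0.5 μg/mL) captured on anti-human IgG-Fc chip to 100–200 RU in HBS-EP+ with 2.5 mg/mL BSA; receptor ECD injected at 30 μL/minute for 240 s, 360 s dissociation, 3M MgCl regeneration. Double-referenced data fit globally for ka and kd; KD=kd/kₐ.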
Background: Surface plasmon resonance follows binding to a sensor surface in real time, without labels.

For assay [11], the target named is T6, human PTH2R overexpressed on CHO cells (human, UniProt P49190 25-550).
T6 construct: whole, on cells; also called CHO human PTH2R
T6 sequence (P49190 25-550): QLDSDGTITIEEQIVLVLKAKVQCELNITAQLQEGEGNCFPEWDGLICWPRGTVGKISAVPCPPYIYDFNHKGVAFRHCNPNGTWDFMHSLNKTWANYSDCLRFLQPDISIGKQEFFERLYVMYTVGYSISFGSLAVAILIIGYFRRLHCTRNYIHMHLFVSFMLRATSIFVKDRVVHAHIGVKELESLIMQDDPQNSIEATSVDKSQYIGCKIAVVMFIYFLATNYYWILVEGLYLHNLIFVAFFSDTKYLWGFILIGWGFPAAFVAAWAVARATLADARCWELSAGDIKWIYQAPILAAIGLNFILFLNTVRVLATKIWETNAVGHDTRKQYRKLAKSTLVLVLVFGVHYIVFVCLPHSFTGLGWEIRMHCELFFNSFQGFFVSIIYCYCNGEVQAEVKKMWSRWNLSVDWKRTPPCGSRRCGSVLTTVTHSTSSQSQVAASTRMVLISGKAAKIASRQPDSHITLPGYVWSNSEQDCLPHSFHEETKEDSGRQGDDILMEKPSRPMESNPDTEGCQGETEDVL
The assay can be described thus: flow cytometry on CHO cells overexpressing human PTH2R, 1 hr at 4 C, APC anti-human IgG. As to the method: Increasing concentrations of anti-PTH1R antibodies were added to CHO cells overexpressing human PTH2R and incubated for 1 hr at 4° C. (FIG. 8). Cells were washed twice with FACS Buffer and antibody binding was detected with anti-human IgG APC. […] Anti-KLH.G2 was used a negative control for binding.
PTH2R has a 51% homology to PTH1R. […] Following two washes, cells were incubated with Allophycocyanin (APC) AffiniPure F(ab′)₂ Fragment Goat Anti-Human IgG (H+L) (Jackson ImmunoResearch, West Grove, Pa.) for 20 minutes at 4° C. Cells were washed twice and resuspended in FACS Buffer. Samples were acquired using BD Cytometer (BD Biosciences, San Jose, Calif.) and data were analyzed using FlowJo (FlowJo, LLC, Ashland, Oreg.) and Prism (GraphPad Software, La Jolla, Calif.). […] Anti-KLH.G2 was used a negative control for binding.
In general terms: In flow cytometry, cells or beads pass a laser one at a time.

For assay [12], the target named is T7, human PTH1R overexpressed on Saos-2 cells (human, UniProt Q03431 27-593).
T7 construct: whole, on cells; also called Saos-2 human PTH1R cells
T7 sequence (looked up): T3 sequence (looked up)
As to the kind of experiment: flow cytometry on Saos-2 cells overexpressing human PTH1R, antibody alone, PE anti-human IgG.

The target of assay [13] is T7, human PTH1R overexpressed on Saos-2 …. As to the kind of experiment: flow cytometry on Saos-2 cells overexpressing human PTH1R, in the presence of 1 uM PTH, PE anti-human IgG.
Assay [14] shares this target. As to the kind of experiment: flow cytometry on Saos-2 cells overexpressing human PTH1R, in the presence of 3 uM PTHrP, PE anti-human IgG.
For assay [15], the target named is T2, rat PTH1R on UMR106 cells. The assay can be described thus: flow cytometry, 1 hr at 4 C.
Assay [16] has as its target T7, human PTH1R overexpressed on Saos-2 …. The assay can be described thus: flow cytometry on Saos-2 cells overexpressing human PTH1R, antibody alone, PE anti-human IgG. This is another data set of the same source.
Assay [17] has the same target. The assay can be described thus: flow cytometry on Saos-2 cells overexpressing human PTH1R, in the presence of 1 uM PTH, PE anti-human IgG. This is another data set of the same source.
For assay [18] the target is unchanged. As to the kind of experiment: flow cytometry on Saos-2 cells overexpressing human PTH1R, in the presence of 3 uM PTHrP, PE anti-human IgG. The text has this:
Antibody binding was detected with R-Phycoerythrin anti-human IgG.
This is another data set of the same source.

Changes are numbered by the printed parent chain.

What is called Kd is the concentration at which binding is half-saturated. What is called koff is the rate constant with which the complex falls apart. What is called kon is the second-order rate constant of association. One may read the EC50 as the midpoint of the concentration-response curve.

For the molecule “human PTHrP(1-34) (from UniProt P12272 37-70) (peptide)”, the EC50 of PTHrP(1-34), cAMP assay, vehicle only in assay [1] amounted to 0.0431 nM; in assay [2], 0.333 nM.
In [3], “Human PTH(1-34) (from UniProt P01270 32-65) (peptide)” yielded an EC50 of PTH (1-34) induced ERK1/2 phosphorylation without anti-PTH1R antibody of 3.8 nM. The EC50 of PTH(1-34), cAMP assay, vehicle only stood at 0.0307 nM in [3], 0.0306 nM in [1], 0.647 nM in assay [2] and 0.524 nM in assay [4]. The PTH (1-34) dose response without anti-PTH1R antibody, M-CSF secretion by Saos-2 cells in assay [4] came to 1.2 nM.

B1: XPA.85.330 (antibody, V domains shown)
VH: QMQLVQSGAEVKKPGSSVKVSCKASGGTFSSYAISWVRQAPGQGLEWMGGIIPIFGTANYAQKFQGRVTITADESTSTAYMELSSLRSEDTAVYYCARGYVVARLWGQGTLVTVSS
VL: DIVMTQTPLSLSVTPGQPASISCKSSQSLLHIDGNTYLYWYLQRPGQPPQLLIYEISNRFSGVPDRFSGSGSGTDFTLKISRVEAEDVGVYYCMQSLHFPITFGQGTRLEIK
notes: IgG; also called Ab330
B1: in assay [5], the “EC50 of antibody, neutralization of M-CSF production induced by 12.5 nM PTHrP (1-36)” value stood at 1.5 nM and the “fold shift of the PTHrP (1-36) dose response, M-CSF secretion by Saos-2 cells, 40 µg/mL antibody” value is greater than 200 fold. Moreover, in assay [6], the “% inhibition of cAMP accumulation at 1 µM PTH(1-34), 267 nM IgG” value is 55% and the “% inhibition of cAMP accumulation at 1 µM PTHrP(1-34), 267 nM IgG” value was found to be 56%. In [7], the “% inhibition of cAMP accumulation at 1 µM PTH(1-34), 267 nM IgG” value stood at 85% and the “% inhibition of cAMP accumulation at 1 µM PTHrP(1-34), 267 nM IgG” value is 89%. In [8], the “IC50, inhibition of PTH(1-34)-induced cAMP accumulation” value was found to be 10.6 nM and the “IC50, inhibition of PTHrP(1-34)-induced cAMP accumulation” value came to 8.23 nM. Further, the “IC50, inhibition of PTHrP(1-34)-induced cAMP accumulation” value in assay [9] was determined as 2.82 nM. Also, in assay [10], the Kd was 0.19 nM, the koff stood at 9e-05 s⁻¹ and the on-rate (kon) amounted to 470000 M⁻¹ s⁻¹. Also, the binding result in assay [11] is “no binding (tested: about 160 nM)”. This molecule yielded an EC50 in assay [12] of 3.67 nM. Also, the EC50 in assay [13] was determined as 21.7 nM. Further, the EC50 in assay [14] turned out to be 193 nM.

B2: XPA.85.344 (antibody, V domains shown)
VH: B1 VH
VL: DVVMTQTPLSLSVTPGQPASFSCKSTQSLLWRDGNTYLYWYLQKPGQSPQLLIYEVSGRFSGVPERFSGSGSGTDFTLEISRVEAEDVGVYYCMQSIHFPLTFGGGTKLEIK
notes: Light-chain-shuffled variant of XPA.85.012
Take B2: in [8], the “IC50, inhibition of PTH(1-34)-induced cAMP accumulation” value is 15.5 nM and the “IC50, inhibition of PTHrP(1-34)-induced cAMP accumulation” value came to 15.3 nM. In [9], the “IC50, inhibition of PTHrP(1-34)-induced cAMP accumulation” value was 3.89 nM. The binding result in assay [15] was “binds”. In assay [10], the Kd amounted to 0.18 nM, the koff was 0.00023 s⁻¹ and the kon amounted to 1.3e+06 M⁻¹ s⁻¹.

B3: XPA.85.328 (antibody, V domains shown)
VH: B1 VH
VL: B1 VL with I2V, N35K, R44K, P45S, P48S, I56V, R66T
notes: IgG; also called Ab328
As to B3, in assay [5], the “EC50 of antibody, neutralization of M-CSF production induced by 12.5 nM PTHrP (1-36)” value is 6.6 nM and the “fold shift of the PTHrP (1-36) dose response, M-CSF secretion by Saos-2 cells, 40 µg/mL antibody” value is greater than 200 fold. In [8], the “IC50, inhibition of PTH(1-34)-induced cAMP accumulation” value came to 11.8 nM and the “IC50, inhibition of PTHrP(1-34)-induced cAMP accumulation” value stood at 7.06 nM. Besides, in assay [9], the “IC50, inhibition of PTHrP(1-34)-induced cAMP accumulation” value amounted to 2.23 nM. Also, in [10], the Kd is 0.32 nM, the koff was determined as 0.00018 s⁻¹ and the kon amounted to 560000 M⁻¹ s⁻¹. The binding result in assay [11] is recorded as “no binding (tested: about 160 nM)”. The molecule also displayed an EC50 in assay [16] of 4.4 nM. Moreover, the EC50 in [17] worked out at 67.4 nM. The EC50 in [18] is 465 nM.

Source of the values: patent US20200317817A1 (XOMA US, published 2020).
